From publication PMC2883962

Target: prostate apoptosis response protein 4 (Par-4), endogenous in native colon cancer cells (human (endogenous in HT29 and SW480)) (UniProt Q96IZ0)
Assay: co-IP; Par-4 immunoprecipitated from lysates of native HT29 cells treated for 24 h with vehicle or 12.5 or 25 μM ISC-4 (AKT inhibitor); immunoprecipitates immunoblotted with PKA, NFκB p50 and 14-3-3 antibodies

Chain of 14-3-3 (P63104 whole entry): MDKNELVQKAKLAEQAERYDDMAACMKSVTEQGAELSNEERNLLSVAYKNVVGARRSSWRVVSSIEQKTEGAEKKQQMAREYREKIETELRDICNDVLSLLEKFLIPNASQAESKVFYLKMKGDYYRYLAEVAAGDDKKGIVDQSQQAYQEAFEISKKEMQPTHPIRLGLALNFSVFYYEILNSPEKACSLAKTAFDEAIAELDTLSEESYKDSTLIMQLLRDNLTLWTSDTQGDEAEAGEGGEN
Chain of UniProt Q96IZ0 (Q96IZ0 whole entry): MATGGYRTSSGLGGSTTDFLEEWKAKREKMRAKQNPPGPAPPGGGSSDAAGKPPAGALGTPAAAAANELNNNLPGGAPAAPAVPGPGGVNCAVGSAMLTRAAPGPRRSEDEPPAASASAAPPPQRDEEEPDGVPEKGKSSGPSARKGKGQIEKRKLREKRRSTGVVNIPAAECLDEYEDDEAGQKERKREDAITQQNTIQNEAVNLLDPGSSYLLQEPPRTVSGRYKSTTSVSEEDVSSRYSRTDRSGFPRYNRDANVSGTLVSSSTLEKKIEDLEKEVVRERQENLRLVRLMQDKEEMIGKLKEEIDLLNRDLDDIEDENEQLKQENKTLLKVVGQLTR

Substance: 14-3-3 (from UniProt P63104 1-245) (natural protein)
- fold decrease of Par-4 binding with ISC-4 against vehicle: 3 fold
